One assay relates to O2 LPS. In words: ELISA binding to O2 LPS. Details: species or system Klebsiella pneumoniae. The following applies: for binding to O2 LPS compared to parent antibody: sequence-optimized variants, FIG. 9. The procedure:
The coated plates were incubated with cell culture supernatants from polyclonally stimulated lymphocytes (AMVBRA) or from monoclonal immortalized B cells (donor interrogations) containing fully human antibodies or with diluted plasma samples (PBMC donor selections) for 1 hour at room temperature. The plates were then washed with PBS containing 0.1% Tween-20 (PBS-T). Secondary antibody was added; either Alkaline Phosphatase-conjugated Goat Anti-Human IgG-AP (Southern Biotech, 2040-04, 1:1000 in PBS-B) or Peroxidase AffiniPure F(ab′)2 Fragment Goat Anti-Human IgG, Fc Fragment Specific (Jackson ImmunoResearch #309 036 098, 1:5000 in PBS-B) were used. Secondary antibodies were typically incubated for 1 h. Plates were washed three times with PBS-T, and P-NitroPhenyl Phosphate (pNPP, Sigma-Aldrich, cat #N2765-100TAB) or Sureblue (KPL, 53-00-03) substrates were added and incubated for 10 min or until the development of a colorimetric reaction. In the case of the HRP substrate Sureblue, the reaction was stopped by adding an equal volume of 0.2N HCl. The absorbance at 405 nm (pNPP) or 450 nm (Sureblue) was measured by a microplate reader (Biotek, Elx808).
The coated plates were incubated with serial dilutions of the monoclonal antibodies for 1 hour at room temperature. The plates were then washed with PBS containing 0.1% Tween-20 (PBS-T). Alkaline Phosphatase-conjugated Goat Anti-Human IgG (Southern Biotech, 2040-04, 1:1000 in PBS-B) was added. The secondary antibody reactions were incubated for 1 h. Plates were washed three times with PBS-T, and P-NitroPhenyl Phosphate (pNPP, Sigma-Aldrich, cat #N2765-100TAB) substrate was added and incubated for 30 min or until the development of a colorimetric reaction. The absorbance at 405 nm was measured by a microplate reader (Biotek, Elx808). The data was plotted with Graphpad Prism software. Representative mAbs from each class were tested for their binding to O1 LPS (FIG. 2A) and O2 LPS (FIG. 2B), and EC50 values were obtained (FIG. 2C). The majority of the anti-O2 LPS mAbs bound to both O1 and O2 LPS by ELISA. […] None of these LPS mAbs bound to the 03, 04, 05, 07, or 012 LPS serotypes (see e.g., FIG. 1A).

In assay [1] the test system is O1 LPS activation of NF-κB in RAW264.7-lux cells. The assay is described as follows: LPS neutralization assay (NF-κB luciferase, RAW264.7-lux), O1 LPS. It is filed as cell-based, murine. As to conditions: human IgG1 format. On the procedure:
(§1) Activation of TLR4 receptors by bacterial LPS leads to downstream activation of the NF-κB transcriptional regulator. A decrease in induction of NF-κB-responsive luciferase activity was used to quantify LPS neutralization activity by LPS mAbs. A murine RAW264.7 macrophage cell line was engineered to carry a firefly luciferase reporter gene under the control of an NF-κB-responsive promoter (RAW264.7-lux). Serially diluted antibody stocks were mixed with LPS in a 1:1 ratio and incubated at 4° C. for 1 hr. Antibody/LPS mixtures were then diluted 1:10 into assay plates containing pre-seeded RAW264.7-lux cells (4e5 cells/well), which were then placed at 37° C. with 5% CO2 for 2.5 hours. Following incubations, Steady Glo solution (Promega) was added to each well and incubated for another 20 min protected from light. The relative light units (RLUs) were measured using a multi-mode microplate reader (Synergy 2, Biotek or envision multilabel plate reader, Perkin Elmer). The percentage of inhibition was determined by comparing RLU derived from assays with no antibodies to RLU derived from assays with anti-K. pneumoniae mAbs and assays performed with a negative control mAb. […] All mAbs were tested in human IgG1 format.

Assay [2] has as its system O2 LPS activation of NF-κB in RAW264.7-lux cells. The assay is described as follows: LPS neutralization assay (NF-κB luciferase, RAW264.7-lux), O2 LPS. It is filed as cell-based, murine. Details: key to LPS Neut O2: +++: Strongly positive activity; +: Positive activity; +/−: Somewhat positive depending upon the test conditions. On the procedure: as §1
Assay [3] deals with K. pneumoniae 8570ΔcpsBLux (O2). The assay is described as follows: Opsonophagocytic killing (OPK) assay, O2 capsule mutant. Type of assay: cell-based, Klebsiella pneumoniae. Details: key to D Capsule OPK O2: +++: Strongly positive activity; +: Positive activity; +/−: Somewhat positive depending upon the test conditions. As to conditions: for D Capsule OPK O2: capsule mutant strain 8570ΔcpsB lux (O2). On the procedure: OPK activity of anti-O2 LPS mAbs was tested against O1 and O2 strains. Briefly, log phase cultures of luminescent K. pneumoniae strains 8570ΔcpsBLux (O2) and 43816ΔcpsBLux (O1) were diluted to ˜2×10^6 cells/ml. K. pneumoniae cells, 5e5/well dimethylformamide (DMF) differentiated HL-60 cells, cleared baby rabbit serum (1:10 Cedarlane), and a series dilution of antibodies (2 ng-2.5 μg/mL) were mixed in 96-well plates and incubated at 37° C. for two hours with shaking (250 rpm). The relative light units (RLUs) were then measured using a multi-mode microplate reader (Synergy 2, Biotek or envision multilabel plate reader, Perkin Elmer). The percentage of killing was determined by comparing RLU derived from assays with no antibodies to RLU derived from assays with anti-K. pneumoniae mAbs and assays performed with a negative control mAb. Positive killing was determined where the percentage of killing is above 40%.

B1: KPS3: Class III anti-O2 antigen human mAb; VH SEQ ID NO: 35, VL SEQ ID NO: 36 (antibody, V domains shown)
VH: QGQLVDSGGGVVQRGGSQRLSCAASGFSFRDYGMHWVRQAPGKGLEWVAFISYDGRDQYYADSVKGRFIISRDNSKNTLSLQMNSLRPEDTAVYYCGPFYNPSLYYPPWGHGLPVIVSS
VL: EVVLTQSPATLSLSPGERATLSCRASQSISSQLAWYQQKPGQAPRLLIHDASNRDTGVPDRFSGSGSGTDFTLTISSLEPEDFAMYYCLQRNNWPPWTFGQGTKVEIK
modifications: Description of Artificial Sequence: SyntheticKPS3 VH polypeptide; Description of Artificial Sequence: SyntheticKPS3 VL polypeptide
For B1, the “binding to LPS-O2” value in the assay with O2 LPS (secondary screening, ELISA) was “bound specifically”. Further, in assay [1], the “neutralizing activity against O1 LPS (NF-κB activation)” value was “no activity”. Further, the “LPS Neut O2” value in assay [2] (Table 7 summary) was “+/−”. Further, in assay [2] (human IgG1 format), the “neutralizing activity against O2 LPS (NF-κB activation)” value is “moderate neutralizing activity”. Besides, the “neutralization of LPS-O2” value in assay [2] (secondary screening) is on record as “neutralized”. Moreover, the “D Capsule OPK O2” value in assay [3] is recorded as “+++”. In addition, the “OPK activity against O2 capsule mutant” value in assay [3] (secondary screening) is on record as “strong OPK activity”.

B2: antibody C: sequence-optimized KPN179, all frameworks germlined; VH SEQ ID NO: 188, VL SEQ ID NO: 191 (antibody, V domains shown)
VH: EVQLVESGGGLVKPGGSLRLSCAASGFTFSNAWMNWVRQAPGKGLEWVGRIKRKADGETTDYAAPVKGRFTISRDDSKNTLYLQMNSLKTEDTAVYYCTTRIVTTNDYWGQGTLVTVSS
VL: QSALTQPRSVSGSPGQSVTISCTGTSSDVGYYDYVSWYQQHPGKAPKLMIYDVNKRPSGVPDRFSGSKSGNTASLTISGLQAEDEADYYCASYAGGDTFVFGTGTKVTVL
modifications: Description of Artificial Sequence: SyntheticKPN179-FR-GL N35S-VH/KPN179-FR-GL-C105A-VL VHpolypeptide; Description of Artificial Sequence: SyntheticKPN179-FR-GL N35S-VH/KPN179-FR-GL-C105A-VL VL polypeptide
Turning to B2, the “binding to O2 LPS compared to parent antibody” value in the assay on O2 LPS is listed as “significantly reduced binding”.

B3: antibody A: sequence-optimized KPN42, all frameworks germlined; VH SEQ ID NO: 26, VL SEQ ID NO: 27 (antibody, V domains shown)
VH: EVQLVESGGGLVKPGGSLRLSCAASGFTFNDAWMNWVRQAPGKGLEWVGRIKKKHEGVTTDYAAPVKGRFTISRDDSKNTLYLQMNSLKTEDTAVYYCTTRIVTTNDYWGQGTLVTVSS
VL: QSALTQPRSVSGSPGQSVTISCTGTSSDVGAYDYVSWYQQHPGKAPKLMIYDVNKRPSGVPDRFSGSKSGNTASLTISGLQAEDEADYYCASYAGGDIFVFGTGTKVTVL
modifications: Description of Artificial Sequence: SyntheticKPN42-FR-GL-VH/KPN42-FR-GL-C105A-VL VH polypeptide; Description of Artificial Sequence: SyntheticKPN42-FR-GL-VH/KPN42-FR-GL-C105A-VL VL polypeptide
On to B3, for which the “binding to O2 LPS compared to parent antibody” value in the assay with O2 LPS was “comparable binding”.

B4: antibody B: sequence-optimized KPN42; VH SEQ ID NO: 17, VL SEQ ID NO: 18 (antibody, V domains shown)
VH: EVQLVESGGGLVKPGGSLRLSCAASGFTFNDAWMNWVRQAPGKGLEWVGRIKKKHEGVTTDYPASVRGRFTISRDDSKNTVYLQMGRLRIEDTAIYYCTTRIVTTNDYWGQGTLVTVSS
VL: QSALTQPRSVSGSPGQSVTISCTGTSSDVGAYDYVSWYQQHPGKAPKLMIYDVNKRPSGVPDRFSGSKSGNTASLTISGLQAEDEADYYCASYAGGDIFVFGTGTKVTVL
modifications: Description of Artificial Sequence: SyntheticKPN42-v2016 VH polypeptide; Description of Artificial Sequence: SyntheticKPN42-v2016 VL polypeptide
For B4, the “binding to O2 LPS compared to parent antibody” value in the assay on O2 LPS was “comparable binding”.

B5: antibody D: sequence-optimized KPN179; VH SEQ ID NO: 187, VL SEQ ID NO: 190 (antibody, V domains shown)
VH: EVQLVESGGGLVKPGGSLRLSCAASGFTFSNAWMNWVRQAPGKGLEWVGRIKRKADGETTDYPASVKGRFTVSRDDSKNTIYLQMNSLKTEDTAIYYCTTRIVTTNDYWGQGTLVTVSS
VL: QSALTQPRSVSGSPGQSVTISCTGTSSDVGYYDYVSWYQQHPGKAPKLMIYDVNKRPSGVPDRFSGSKSGNTASLTISGLQAEDEADYYCASYAGGDTFVFGTGTKVTVL
modifications: Description of Artificial Sequence: SyntheticKPN179-FR-1-2-4-GL N35S-VH/KPN179-FR-GL-C105A-VL VHpolypeptide; Description of Artificial Sequence: SyntheticKPN179-FR-1-2-4-GL N35S-VH/KPN179-FR-GL-C105A-VL VLpolypeptide
B5: the “binding to O2 LPS compared to parent antibody” value in the assay on O2 LPS is “comparable binding”.

B6: 6F6: Class I mouse hybridoma anti-O2 mAb (Ms IgM); VH SEQ ID NO: 80, VL SEQ ID NO: 81 (antibody, V domains shown)
VH: QVHLQQSGSELRSPGSSVKLSCKDFDSDVFPIAYMGWIRQQPGHGFDWIGDILPNIGRTIYGEKFEDKATLDADTVSNTAYLELSSLTSEDSAIYYCARRGTSGAMDYWGQGTSVTVSS
VL: DVVMTQTPLFLPVSLGDQASISCRSSQGLVHSTGNTFLHWYLQKPGQSPKLLIYKVSNRFSGVPDRFSGSGSGTDFTLKISRVEAEDLGIYFCSQSTHIPYTFGGGTKLEIK
modifications: Description of Artificial Sequence: Synthetic6F6 VH polypeptide; Description of Artificial Sequence: Synthetic6F6 VL polypeptide
Take B6: the “D Capsule OPK O2” value in assay [3] is recorded as “+”.

These data come from patent US12312397B2, “Anti-O2 antibodies and uses thereof” (priority 2016, dated 2025).
